Test results published in the supplement of paper PMC7125110.
± gives the standard error. For some of these results: This sample holds only a part of the variants without activity.

B1: glmS ribozyme (parent)
chain: AUAAAAGCGCCAGAACUACAGAAAUGUAGUUGACGAGGAGGAGGUUUAUCGAAUUUUCGGCGGAUGCCUCCAAA

Key:
Conditions in all cases: with glucosamine-6-phosphate
glucosamine-6-phosphate [1] = variants of: B1; experiment: kcat; higher = faster cleavage; RNA array
In short: (§1)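 Weighted Michaelis–Menten fits across concentrations supplied kcat and KM, based on kobs from one- or two-exponential decay fits to normalised per-tile medians. The data came from barcoded ribozyme variants transcribed in situ by E. coli RNA polymerase on sequenced MiSeq chips and tracked at 37 °C by a hybridised Cy3 probe. Glucosamine-6-phosphate (40 μM to 10 mM) in HEPES/KCl/Mg(OAc)2 buffer was flowed in.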

glucosamine-6-phosphate [2] = variants of: B1; experiment: self-cleavage kobs at 40 uM GlcN6P; higher = faster cleavage; RNA array
In short: as §1

glucosamine-6-phosphate [3] = variants of: B1; experiment: self-cleavage kobs at 160 uM GlcN6P; higher = faster cleavage; RNA array
In short: as §1

glucosamine-6-phosphate [4] = variants of: B1; experiment: self-cleavage kobs at 640 uM GlcN6P; higher = faster cleavage; RNA array
In short: as §1

glucosamine-6-phosphate [5] = variants of: B1; experiment: self-cleavage kobs at 2500 uM GlcN6P; higher = faster cleavage; RNA array
In short: as §1

glucosamine-6-phosphate [6] = variants of: B1; experiment: self-cleavage kobs at 10000 uM GlcN6P; higher = faster cleavage; RNA array
In short: as §1

glucosamine-6-phosphate [7] = variants of: B1; experiment: KM; higher = weaker cofactor use; RNA array
In short: as §1

Row | Variant | kcat (glucosamine-6-phosphate [1]) | self-cleavage kobs at 40 uM GlcN6P (glucosamine-6-phosphate [2]) | self-cleavage kobs at 160 uM GlcN6P (glucosamine-6-phosphate [3]) | self-cleavage kobs at 640 uM GlcN6P (glucosamine-6-phosphate [4]) | self-cleavage kobs at 2500 uM GlcN6P (glucosamine-6-phosphate [5]) | self-cleavage kobs at 10000 uM GlcN6P (glucosamine-6-phosphate [6]) | KM (glucosamine-6-phosphate [7])
1 | C11U A42G | 0.00345 ± 0.0015 s⁻¹ | 9.14e-05 ± 3.5e-05 s⁻¹ | 0.000114 ± 3e-05 s⁻¹ | 0.000561 ± 0.00013 s⁻¹ | 0.00178 ± 0.0004 s⁻¹ | 0.0022 ± 0.00065 s⁻¹ | 
2 | A12C C61A | < 1e-05 s⁻¹ |  |  |  |  | < 1e-05 s⁻¹ | 
3 | A12C G66U | 0.00165 ± 0.00058 s⁻¹ | 5.83e-05 ± 1.3e-05 s⁻¹ | 9.73e-05 ± 1.3e-05 s⁻¹ | 0.000586 ± 6.9e-05 s⁻¹ | 0.000865 ± 0.00014 s⁻¹ | 0.00133 ± 0.0002 s⁻¹ | 1990 ± 990 µM
4 | C11U U46G | 0.000268 ± 4.3e-05 s⁻¹ |  |  | 5.11e-05 ± 7.1e-06 s⁻¹ | 0.00018 ± 2.7e-05 s⁻¹ | 0.000204 ± 2.3e-05 s⁻¹ | 2460 ± 740 µM
5 | C11A U49A | < 1e-05 s⁻¹ |  |  | < 1e-05 s⁻¹ | < 1e-05 s⁻¹ |  | 
6 | C11U G66A U69A | 5.61e-05 ± 6.6e-06 s⁻¹ |  |  | 4.24e-05 ± 1.5e-05 s⁻¹ | 4.46e-05 ± 1.3e-05 s⁻¹ | 6.32e-05 ± 1.9e-05 s⁻¹ | 
7 | A12C C50G G66C | 0.000103 ± 2.8e-05 s⁻¹ |  | 0.00011 ± 3.2e-05 s⁻¹ | 7.92e-05 ± 2.3e-05 s⁻¹ | 0.000103 ± 2.6e-05 s⁻¹ |  | 
8 | C11U U47C | 8.97e-05 ± 5.3e-06 s⁻¹ |  |  | 4.05e-05 ± 1.7e-05 s⁻¹ | 5.91e-05 ± 8.5e-06 s⁻¹ | 8.15e-05 ± 8.5e-06 s⁻¹ | 1150 ± 290 µM
9 | A12C G66C C70A | 8.64e-05 ± 2.7e-05 s⁻¹ |  | 0.000157 ± 5.7e-05 s⁻¹ | 3.9e-05 ± 1.8e-05 s⁻¹ | 0.00011 ± 3.2e-05 s⁻¹ | 8.13e-05 ± 1.6e-05 s⁻¹ | 
10 | C11U C68A C71G | 5.97e-05 ± 2.3e-05 s⁻¹ |  |  | 0.000101 ± 2.3e-05 s⁻¹ |  |  | 
11 | C11U G37C U57A | 1.82e-05 ± 2.9e-06 s⁻¹ |  |  |  |  | < 1e-05 s⁻¹ | 
12 | A12C C68A | 2.22e-05 ± 4.9e-06 s⁻¹ | < 1e-05 s⁻¹ | < 1e-05 s⁻¹ |  | 2.42e-05 ± 7.9e-06 s⁻¹ |  | 
13 | C11U U55C | 0.00286 ± 0.00063 s⁻¹ |  | 6.7e-05 ± 1.2e-05 s⁻¹ | 0.00029 ± 4.1e-05 s⁻¹ | 0.000776 ± 0.0001 s⁻¹ | 0.00181 ± 0.0003 s⁻¹ | 6220 ± 1800 µM
14 | C11U U55A | 0.00167 ± 0.0004 s⁻¹ | 6.97e-05 ± 1.2e-05 s⁻¹ | 0.000177 ± 3.7e-05 s⁻¹ | 0.000478 ± 9.1e-05 s⁻¹ | 0.000891 ± 0.0002 s⁻¹ | 0.0018 ± 0.00026 s⁻¹ | 1260 ± 470 µM
15 | C11U U55G | 0.0019 ± 0.00039 s⁻¹ | 5.89e-05 ± 1.1e-05 s⁻¹ | 0.000214 ± 4.9e-05 s⁻¹ | 0.000351 ± 7.6e-05 s⁻¹ | 0.00137 ± 0.00026 s⁻¹ | 0.00164 ± 0.00016 s⁻¹ | 1700 ± 660 µM
16 | C11G A15G | 1.01e-05 ± 1.4e-06 s⁻¹ |  |  | < 1e-05 s⁻¹ |  |  | 
17 | C11U G13C A52U C70U | 1.58e-05 ± 5.8e-06 s⁻¹ | < 1e-05 s⁻¹ |  |  |  | < 1e-05 s⁻¹ | 
18 | C11G G43A | < 1e-05 s⁻¹ | < 1e-05 s⁻¹ | < 1e-05 s⁻¹ | < 1e-05 s⁻¹ |  | < 1e-05 s⁻¹ | 525 ± 190 µM

Row | Variant | kcat (glucosamine-6-phosphate [1]) | self-cleavage kobs at 40 uM GlcN6P (glucosamine-6-phosphate [2]) | self-cleavage kobs at 160 uM GlcN6P (glucosamine-6-phosphate [3]) | self-cleavage kobs at 640 uM GlcN6P (glucosamine-6-phosphate [4]) | self-cleavage kobs at 2500 uM GlcN6P (glucosamine-6-phosphate [5]) | self-cleavage kobs at 10000 uM GlcN6P (glucosamine-6-phosphate [6]) | KM (glucosamine-6-phosphate [7])
19 | C11U U57A | 1.44e-05 ± 2.1e-06 s⁻¹ |  |  |  |  |  | 
20 | C11A U31A | 0.00019 ± 2e-05 s⁻¹ |  |  | 5.42e-05 ± 1e-05 s⁻¹ | 0.000147 ± 2.8e-05 s⁻¹ | 0.000158 ± 2.3e-05 s⁻¹ | 1480 ± 350 µM
21 | C11A U31G | 0.000375 ± 9.9e-05 s⁻¹ |  |  | 4.58e-05 ± 1.1e-05 s⁻¹ | 0.000179 ± 3.7e-05 s⁻¹ | 0.000253 ± 5.7e-05 s⁻¹ | 3900 ± 1600 µM
22 | C11A U57G | < 1e-05 s⁻¹ |  | < 1e-05 s⁻¹ |  |  |  | 
23 | C11A U57C | < 1e-05 s⁻¹ |  |  | < 1e-05 s⁻¹ |  |  | 
24 | A12C G37U | < 1e-05 s⁻¹ | < 1e-05 s⁻¹ |  |  |  |  | 
25 | A12C A48C | 0.000151 ± 3.5e-05 s⁻¹ |  |  | 3.34e-05 ± 1.1e-05 s⁻¹ | 4.89e-05 ± 1.2e-05 s⁻¹ | 0.000111 ± 1.2e-05 s⁻¹ | 
26 | A12C G44A A53U | 0.000479 ± 4.3e-05 s⁻¹ |  |  | 5.92e-05 ± 1.6e-05 s⁻¹ | 0.000169 ± 4.4e-05 s⁻¹ |  | 4570 ± 530 µM
27 | C11U C67G | 0.000216 ± 2.7e-05 s⁻¹ | 2.61e-05 ± 1.2e-05 s⁻¹ | 4.28e-05 ± 9.2e-06 s⁻¹ | 0.000102 ± 1e-05 s⁻¹ | 0.000218 ± 2.2e-05 s⁻¹ | 0.000189 ± 1.7e-05 s⁻¹ | 633 ± 220 µM
28 | C11U U31A | 0.00134 ± 0.00062 s⁻¹ |  | 9.69e-05 ± 2.6e-05 s⁻¹ | 0.000376 ± 6.7e-05 s⁻¹ | 0.000431 ± 0.00012 s⁻¹ | 0.00146 ± 0.00025 s⁻¹ | 
29 | C11U U31G | 0.00667 ± 0.0031 s⁻¹ | 0.000105 ± 2.5e-05 s⁻¹ | 0.000255 ± 6.7e-05 s⁻¹ | 0.000818 ± 0.00016 s⁻¹ | 0.00175 ± 0.0004 s⁻¹ | 0.00565 ± 0.00097 s⁻¹ | 
30 | C11U U31C | 0.000563 ± 7.8e-05 s⁻¹ |  | 2.97e-05 ± 1.5e-05 s⁻¹ | 0.000179 ± 2.3e-05 s⁻¹ | 0.000364 ± 5.9e-05 s⁻¹ | 0.000465 ± 5.5e-05 s⁻¹ | 1620 ± 460 µM
31 | C11G G59U | 0.000116 ± 2.9e-05 s⁻¹ |  |  |  | 0.000106 ± 2.1e-05 s⁻¹ | 9.62e-05 ± 1.5e-05 s⁻¹ | 
32 | C11G A12G | < 1e-05 s⁻¹ | < 1e-05 s⁻¹ | < 1e-05 s⁻¹ |  |  | < 1e-05 s⁻¹ | 16.2 ± 6.9 µM
33 | C11A U55C | 0.000132 ± 2.4e-05 s⁻¹ |  |  | 3.19e-05 ± 1.5e-05 s⁻¹ | 0.000125 ± 4.2e-05 s⁻¹ | 0.000109 ± 2.1e-05 s⁻¹ | 
34 | C11U U54C U56C | 0.000628 ± 6.2e-05 s⁻¹ |  |  | 4.18e-05 ± 1.9e-05 s⁻¹ | 0.000151 ± 4.7e-05 s⁻¹ | 0.000337 ± 9.5e-05 s⁻¹ | 8410 ± 1200 µM
35 | C11U G32U | 0.000176 ± 8e-05 s⁻¹ |  |  |  |  | 3.94e-05 ± 5.4e-06 s⁻¹ | 
